Values of other authors, collected in PMC3138520.

Molecular target: NRG-1β (Homo sapiens) (UniProt Q02297)
Sequence of UniProt Q02297 (Q02297 20-241): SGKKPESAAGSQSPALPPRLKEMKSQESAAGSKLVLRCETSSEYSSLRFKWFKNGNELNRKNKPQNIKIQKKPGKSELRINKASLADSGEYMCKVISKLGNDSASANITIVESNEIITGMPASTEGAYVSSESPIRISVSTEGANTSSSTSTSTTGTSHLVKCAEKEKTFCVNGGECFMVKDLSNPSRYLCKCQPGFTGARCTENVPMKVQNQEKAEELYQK

HER3 (from UniProt P21860)
Kd: 10 nM
